{"source": "patent US20260258146A1", "about": "(Regeneron, published 2026)", "binders": {"B1": {"name": "bsAb6031 (bispecific antibody, human IgG4 S228P, kappa)", "heavy 1": "EVQLVESGGGLVQPGRSLRLSCAASGFTFDDYAMHWVRQAPGKGLEWVSGISWKSDNIGYADSVKGRFTISRDNAKNSLYLQMNSLRAEDTALYYCAKALGGWKFDYYYGMDVWGQGTTVTVSSASTKGPSVFPLAPCSRSTSESTAALGCLVKDYFPEPVTVSWNSGALTSGVHTFPAVLQSSGLYSLSSVVTVPSSSLGTKTYTCNVDHKPSNTKVDKRVESKYGPPCPPCPAPPVAGPSVFLFPPKPKDTLMISRTPEVTCVVVDVSQEDPEVQFNWYVDGVEVHNAKTKPREEQFNSTYRVVSVLTVLHQDWLNGKEYKCKVSNKGLPSSIEKTISKAKGQPREPQVYTLPPSQEEMTKNQVSLTCLVKGFYPSDIAVEWESNGQPENNYKTTPPVLDSDGSFFLYSRLTVDKSRWQEGNVFSCSVMHEALHNHYTQKSLSLSLGK", "heavy 2": "EVQLVESGGGLVQPGGSLRLSCAASGFTFSRNNMHWVRQAPGKGLEYVSGISSNGGRTYYADSVKGRFTISRDNSKNTLYLQMGGLRAADMAVYFCTRDDELLSFDYWGQGTLVTVSSASTKGPSVFPLAPCSRSTSESTAALGCLVKDYFPEPVTVSWNSGALTSGVHTFPAVLQSSGLYSLSSVVTVPSSSLGTKTYTCNVDHKPSNTKVDKRVESKYGPPCPPCPAPPVAGPSVFLFPPKPKDTLMISRTPEVTCVVVDVSQEDPEVQFNWYVDGVEVHNAKTKPREEQFNSTYRVVSVLTVLHQDWLNGKEYKCKVSNKGLPSSIEKTISKAKGQPREPQVYTLPPSQEEMTKNQVSLTCLVKGFYPSDIAVEWESNGQPENNYKTTPPVLDSDGSFFLYSRLTVDKSRWQEGNVFSCSVMHEALHNRFTQKSLSLSPGK", "light": "not shown"}, "B2": {"name": "bsAb7945 (bispecific antibody, human IgG4 S228P, kappa)", "heavy 1": "QVQLVQSGAEVKKPGSSVKVSCKASGGPFRSSSFSWVRQAPGQGLEWMGGIIPILGKTNYAQKFQGRITIVTDESTTTVYMELSSLRSEDTAVFYCVRGSSLFDYWGQGTLVTVSSASTKGPSVFPLAPCSRSTSESTAALGCLVKDYFPEPVTVSWNSGALTSGVHTFPAVLQSSGLYSLSSVVTVPSSSLGTKTYTCNVDHKPSNTKVDKRVESKYGPPCPPCPAPPVAGPSVFLFPPKPKDTLMISRTPEVTCVVVDVSQEDPEVQFNWYVDGVEVHNAKTKPREEQFNSTYRVVSVLTVLHQDWLNGKEYKCKVSNKGLPSSIEKTISKAKGQPREPQVYTLPPSQEEMTKNQVSLTCLVKGFYPSDIAVEWESNGQPENNYKTTPPVLDSDGSFFLYSRLTVDKSRWQEGNVFSCSVMHEALHNHYTQKSLSLSLGK", "heavy 2": "QVQLQESGPGLVKPSETLSLTCTVSGGSISSYYWSWIRQPPGKGLEWIGYIYYSGITHYNPSLKSRVTISVDTSKIQFSLKLSSVTAADTAVYYCARWGVRRDYYYYGMDVWGQGTTVTVSSASTKGPSVFPLAPCSRSTSESTAALGCLVKDYFPEPVTVSWNSGALTSGVHTFPAVLQSSGLYSLSSVVTVPSSSLGTKTYTCNVDHKPSNTKVDKRVESKYGPPCPPCPAPPVAGPSVFLFPPKPKDTLMISRTPEVTCVVVDVSQEDPEVQFNWYVDGVEVHNAKTKPREEQFNSTYRVVSVLTVLHQDWLNGKEYKCKVSNKGLPSSIEKTISKAKGQPREPQVYTLPPSQEEMTKNQVSLTCLVKGFYPSDIAVEWESNGQPENNYKTTPPVLDSDGSFFLYSRLTVDKSRWQEGNVFSCSVMHEALHNRFTQKSLSLSPGK", "light": "not shown"}}, "assay_in_all_cases": "cell-based or functional assay", "key": {"[1]": {"molecular_target": "T1, human CD28 on human primary CD3+ T cells (human, UniProt P10747 19-220)"}, "[2]": {"molecular_target": "T1, human CD28 on human primary CD3+ T cells", "remark": "listed apart in the source"}, "[3]": {"molecular_target": "T1, human CD28 on human primary CD3+ T cells", "remark": "listed apart in the source"}, "[4]": {"molecular_target": "T1, human CD28 on human primary CD3+ T cells", "remark": "listed apart in the source"}}, "data": [{"binder": "B1", "values": [{"measurement": "EC50 T-cell proliferation; T cells + HEK293/hCD20/hCD38; bsAb6031 + TAAxCD3", "setting": "[1]", "result": 143, "unit": "pM"}, {"measurement": "EC50 T-cell proliferation; T cells + MOLP8; bsAb6031 + IgG4^P", "setting": "[1]", "result": 467, "unit": "pM"}, {"measurement": "EC50 IFNγ release; T cells + HEK293/hCD20/hCD38; bsAb6031 + TAAxCD3", "setting": "[2]", "result": 294, "unit": "pM"}, {"measurement": "EC50 IFNγ release; T cells + MOLP8; bsAb6031 + TAAxCD3", "setting": "[2]", "result": 748, "unit": "pM"}, {"measurement": "EC50 IL2 release; T cells + NALM-6/hPD-L1; bsAb6031 + Cemiplimab", "setting": "[3]", "result": 4.39, "unit": "nM"}, {"measurement": "EC50 IL2 release; T cells + NALM-6/hPD-L1; bsAb6031 + IgG4^P", "setting": "[3]", "result": 2.64, "unit": "nM"}, {"measurement": "EC50 IL2 release; T cells + NALM-6; bsAb6031 + Cemiplimab", "setting": "[3]", "result": 2.44, "unit": "nM"}, {"measurement": "EC50 IL2 release; T cells + NALM-6; bsAb6031 + IgG4^P", "setting": "[3]", "result": 1.68, "unit": "nM"}, {"measurement": "EC50 IL2 release; T cells + HEK293/hCD20/hCD38; bsAb6031 + TAAxCD3", "setting": "[4]", "result": 199, "unit": "pM"}, {"measurement": "EC50 IL2 release; T cells + MOLP8; bsAb6031 + IgG4^P", "setting": "[4]", "result": 653, "unit": "pM"}, {"measurement": "EC50 IL2 release; T cells + MOLP8; bsAb6031 + TAAxCD3", "setting": "[4]", "result": 1.02, "unit": "nM"}]}, {"binder": "B2", "values": [{"measurement": "EC50 T-cell proliferation; T cells + HEK293/hCD20/hCD38; bsAb7945 + IgG4^P", "setting": "[1]", "result": 45.6, "unit": "nM"}, {"measurement": "EC50 T-cell proliferation; T cells + HEK293/hCD20/hCD38; bsAb7945 + TAAxCD3", "setting": "[1]", "result": 0.894, "unit": "pM"}, {"measurement": "EC50 IFNγ release; T cells + HEK293/hCD20/hCD38; bsAb7945 + TAAxCD3", "setting": "[2]", "result": 123, "unit": "pM"}, {"measurement": "EC50 IFNγ release; T cells + MOLP8; bsAb7945 + TAAxCD3", "setting": "[2]", "result": 4.24, "unit": "pM"}, {"measurement": "EC50 IL2 release; T cells + NALM-6/hPD-L1; bsAb7945 + Cemiplimab", "setting": "[3]", "result": 143, "unit": "pM"}, {"measurement": "EC50 IL2 release; T cells + NALM-6/hPD-L1; bsAb7945 + IgG4^P", "setting": "[3]", "result": 169, "unit": "pM"}, {"measurement": "EC50 IL2 release; T cells + NALM-6; bsAb7945 + Cemiplimab", "setting": "[3]", "result": 98.1, "unit": "pM"}, {"measurement": "EC50 IL2 release; T cells + HEK293/hCD20/hCD38; bsAb7945 + IgG4^P", "setting": "[4]", "result": 41.4, "unit": "nM"}, {"measurement": "EC50 IL2 release; T cells + HEK293/hCD20/hCD38; bsAb7945 + TAAxCD3", "setting": "[4]", "result": 5.02, "unit": "pM"}, {"measurement": "EC50 IL2 release; T cells + MOLP8; bsAb7945 + IgG4^P", "setting": "[4]", "result": 9.71, "unit": "pM"}]}]}
